Measured values published in patent publication US10947289B2, “Glyco-modified atrial natriuretic peptide” (priority 2013, dated 2021).

Legend:
human GC-A = molecular target: T1, human GC-A (Homo sapiens, UniProt P16066); assay: cGMP elevating activity in CHO/human GC-A cells (Test Example 1); type: cell-based
T1 construct: expressed in transfected cells; host or cells: CHO cells
T1 sequence (P16066 33-1061): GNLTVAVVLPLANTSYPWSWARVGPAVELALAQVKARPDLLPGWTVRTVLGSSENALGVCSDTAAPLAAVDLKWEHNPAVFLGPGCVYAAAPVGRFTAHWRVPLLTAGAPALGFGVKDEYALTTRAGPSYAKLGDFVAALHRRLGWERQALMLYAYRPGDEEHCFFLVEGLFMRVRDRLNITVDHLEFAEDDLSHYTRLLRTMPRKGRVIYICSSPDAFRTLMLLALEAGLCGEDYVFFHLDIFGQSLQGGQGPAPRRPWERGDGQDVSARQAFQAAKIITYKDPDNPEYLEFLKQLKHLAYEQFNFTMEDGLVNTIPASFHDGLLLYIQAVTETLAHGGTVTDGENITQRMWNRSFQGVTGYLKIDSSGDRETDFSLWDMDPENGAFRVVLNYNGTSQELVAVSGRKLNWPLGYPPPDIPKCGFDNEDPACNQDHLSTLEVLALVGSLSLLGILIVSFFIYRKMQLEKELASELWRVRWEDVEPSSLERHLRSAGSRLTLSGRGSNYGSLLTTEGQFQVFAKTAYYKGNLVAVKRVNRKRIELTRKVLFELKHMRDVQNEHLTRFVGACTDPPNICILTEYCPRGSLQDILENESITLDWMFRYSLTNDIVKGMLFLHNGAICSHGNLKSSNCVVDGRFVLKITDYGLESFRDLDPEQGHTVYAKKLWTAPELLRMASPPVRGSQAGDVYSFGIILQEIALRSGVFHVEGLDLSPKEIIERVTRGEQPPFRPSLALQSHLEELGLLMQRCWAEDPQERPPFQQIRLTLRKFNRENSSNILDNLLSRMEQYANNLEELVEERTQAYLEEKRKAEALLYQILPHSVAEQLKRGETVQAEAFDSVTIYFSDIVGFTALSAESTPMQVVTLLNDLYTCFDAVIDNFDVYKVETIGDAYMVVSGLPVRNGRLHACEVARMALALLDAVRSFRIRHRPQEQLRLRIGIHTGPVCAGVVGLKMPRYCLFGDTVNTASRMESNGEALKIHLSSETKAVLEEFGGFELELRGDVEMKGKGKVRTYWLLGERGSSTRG
Procedure, shortened: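 CHO cells stably expressing human GC-A, pre-incubated 10 min at room temperature in 1.6 mM IBMX/KRB, then exposed to test peptide 15 min in CO2 incubator. Lysate cGMP measured by HTRF. Activity (T/C) scaled so solvent-only = 0 and 1 nM ANP = 1.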

[1] = Detection of test substance in rat plasma by LC-MS/MS (Test Example 3); type: in vivo; conditions: rat plasma, 100 nmol/kg i.v., LC-MS/MS; time at which the test substance was finally detected
Protocol: Before the administration and 15, 30, 60, 90, 120, 180, and 240 minutes after the administration, blood was sampled (200 μL/sampling) over time from the jugular vein. The blood samples were immediately left on ice.
The collected blood samples were centrifuged at 5000 rpm at 4° C. for 5 minutes by use of a centrifuge (Sigma 4K15, rotor: Nr12130-H). The separated plasma samples were divided into two types (samples for PK measurement and for cGMP measurement) and stored at −80° C. until measurement.
An internal standard (20 μL (500 nM) of a stable isotope of hANP) and an acetic acid mixed solvent (AcOH/distilled water/DMSO=5/3/2, v/v/v) were added to 50 μL of each rat plasma sample prepared in (1) and then mixed therewith. The mixture was transferred to Amicon Ultra-0.5 50K (Millipore Corp., MA) and centrifuged at 14000 rpm at 15° C. for 30 minutes. The obtained filtrate was transferred to Amicon Ultra-0.5 3K (Millipore Corp., MA) and centrifuged again under the aforementioned conditions. The solution remaining on the filter was recovered and transferred to a 96-well deep well plate. The content of the test substance was measured by LC-MS/MS (LC: Shimadzu LC-10ADVP (Shimadzu Corp.), MS/MS: API 4000 QTrap (AB SCIEX)) to calculate the concentration in plasma. The time at which the test substance was finally detected is shown in the rightmost column of Table 2.

## CC[C@H](C)[C@@H]1NC(=O)[C@H](CCCNC(=N)N)NC(=O)[C@H](CC(=O)O)NC(=O)[C@H](CCSC)NC(=O)[C@H](CCCNC(=N)N)NC(=O)CNC(=O)CNC(=O)[C@H](Cc2ccccc2)NC(=O)[C@@H](NC(=O)[C@H](CO)NC(=O)[C@H](CO)NC(=O)[C@H](CCCNC(=N)N)NC(=O)[C@H](CCCNC(=N)N)NC(=O)[C@H](CC(C)C)NC(=O)[C@H](CO)NC(=O)CNC(=O)[C@H](CCCCNC(=O)CO[C@@H]2O[C@H](CO)[C@@H](O[C@@H]3O[C@H](CO)[C@@H](O[C@@H]4O[C@H](CO[C@H]5O[C@H](CO)[C@@H](O)[C@H](O)[C@@H]5O[C@@H]5O[C@H](CO)[C@@H](O[C@@H]6O[C@H](CO[C@]7(C(=O)O)C[C@H](O)[C@@H](NC(C)=O)[C@H]([C@H](O)[C@H](O)CO)O7)[C@H](O)[C@H](O)[C@H]6O)[C@H](O)[C@H]5NC(C)=O)[C@@H](O)[C@H](O[C@H]5O[C@H](CO)[C@@H](O)[C@H](O)[C@@H]5O[C@@H]5O[C@H](CO)[C@@H](O[C@@H]6O[C@H](CO[C@]7(C(=O)O)C[C@H](O)[C@@H](NC(C)=O)[C@H]([C@H](O)[C@H](O)CO)O7)[C@H](O)[C@H](O)[C@H]6O)[C@H](O)[C@H]5NC(C)=O)[C@@H]4O)[C@H](O)[C@H]3NC(C)=O)[C@H](O)[C@H]2NC(C)=O)NC(=O)CO[C@@H]2O[C@H](CO)[C@@H](O[C@@H]3O[C@H](CO)[C@@H](O[C@@H]4O[C@H](CO[C@H]5O[C@H](CO)[C@@H](O)[C@H](O)[C@@H]5O[C@@H]5O[C@H](CO)[C@@H](O[C@@H]6O[C@H](CO[C@]7(C(=O)O)C[C@H](O)[C@@H](NC(C)=O)[C@H]([C@H](O)[C@H](O)CO)O7)[C@H](O)[C@H](O)[C@H]6O)[C@H](O)[C@H]5NC(C)=O)[C@@H](O)[C@H](O[C@H]5O[C@H](CO)[C@@H](O)[C@H](O)[C@@H]5O[C@@H]5O[C@H](CO)[C@@H](O[C@@H]6O[C@H](CO[C@]7(C(=O)O)C[C@H](O)[C@@H](NC(C)=O)[C@H]([C@H](O)[C@H](O)CO)O7)[C@H](O)[C@H](O)[C@H]6O)[C@H](O)[C@H]5NC(C)=O)[C@@H]4O)[C@H](O)[C@H]3NC(C)=O)[C@H](O)[C@H]2NC(C)=O)CSSC[C@@H](C(=O)N[C@@H](CC(N)=O)C(=O)N[C@@H](CO)C(=O)N[C@@H](Cc2ccccc2)C(=O)N[C@@H](CCCNC(=N)N)C(=O)N[C@@H](Cc2ccc(O)cc2)C(=O)O)NC(=O)CNC(=O)[C@H](CC(C)C)NC(=O)CNC(=O)[C@H](CO)NC(=O)[C@H](CCC(N)=O)NC(=O)[C@H](C)NC(=O)CNC1=O [Compound 2-14, SG-(SG-)Lys-Gly-hANP(1-28)]
Human GC-A
  EC50: 0.6 nM
[1]
  Maximum time of detection after administration: 1.5 h

## CC[C@H](C)[C@@H]1NC(=O)[C@H](CCCNC(=N)N)NC(=O)[C@H](CC(=O)O)NC(=O)[C@H](CCSC)NC(=O)[C@H](CCCNC(=N)N)NC(=O)CNC(=O)CNC(=O)[C@H](Cc2ccccc2)NC(=O)[C@@H](NC(=O)[C@H](CO)NC(=O)[C@H](CO)NC(=O)[C@H](CCCNC(=N)N)NC(=O)[C@H](CCCNC(=N)N)NC(=O)[C@H](CC(C)C)NC(=O)[C@H](CO)NC(=O)CNC(=O)[C@H](CSC2CC(=O)N(CCC(=O)NCCO[C@@H]3O[C@H](CO)[C@@H](O[C@@H]4O[C@H](CO)[C@@H](O[C@@H]5O[C@H](CO[C@H]6O[C@H](CO)[C@@H](O)[C@H](O)[C@@H]6O[C@@H]6O[C@H](CO)[C@@H](O[C@@H]7O[C@H](CO[C@]8(C(=O)O)C[C@H](O)[C@@H](NC(C)=O)[C@H]([C@H](O)[C@H](O)CO)O8)[C@H](O)[C@H](O)[C@H]7O)[C@H](O)[C@H]6NC(C)=O)[C@@H](O)[C@H](O[C@H]6O[C@H](CO)[C@@H](O)[C@H](O)[C@@H]6O[C@@H]6O[C@H](CO)[C@@H](O[C@@H]7O[C@H](CO[C@]8(C(=O)O)C[C@H](O)[C@@H](NC(C)=O)[C@H]([C@H](O)[C@H](O)CO)O8)[C@H](O)[C@H](O)[C@H]7O)[C@H](O)[C@H]6NC(C)=O)[C@@H]5O)[C@H](O)[C@H]4NC(C)=O)[C@H](O)[C@H]3NC(C)=O)C2=O)NC(=O)CNC(=O)[C@H](CSC2CC(=O)N(CCC(=O)NCCO[C@@H]3O[C@H](CO)[C@@H](O[C@@H]4O[C@H](CO)[C@@H](O[C@@H]5O[C@H](CO[C@H]6O[C@H](CO)[C@@H](O)[C@H](O)[C@@H]6O[C@@H]6O[C@H](CO)[C@@H](O[C@@H]7O[C@H](CO[C@]8(C(=O)O)C[C@H](O)[C@@H](NC(C)=O)[C@H]([C@H](O)[C@H](O)CO)O8)[C@H](O)[C@H](O)[C@H]7O)[C@H](O)[C@H]6NC(C)=O)[C@@H](O)[C@H](O[C@H]6O[C@H](CO)[C@@H](O)[C@H](O)[C@@H]6O[C@@H]6O[C@H](CO)[C@@H](O[C@@H]7O[C@H](CO[C@]8(C(=O)O)C[C@H](O)[C@@H](NC(C)=O)[C@H]([C@H](O)[C@H](O)CO)O8)[C@H](O)[C@H](O)[C@H]7O)[C@H](O)[C@H]6NC(C)=O)[C@@H]5O)[C@H](O)[C@H]4NC(C)=O)[C@H](O)[C@H]3NC(C)=O)C2=O)NC(=O)CNC(=O)[C@H](CSC2CC(=O)N(CCC(=O)NCCO[C@@H]3O[C@H](CO)[C@@H](O[C@@H]4O[C@H](CO)[C@@H](O[C@@H]5O[C@H](CO[C@H]6O[C@H](CO)[C@@H](O)[C@H](O)[C@@H]6O[C@@H]6O[C@H](CO)[C@@H](O[C@@H]7O[C@H](CO[C@]8(C(=O)O)C[C@H](O)[C@@H](NC(C)=O)[C@H]([C@H](O)[C@H](O)CO)O8)[C@H](O)[C@H](O)[C@H]7O)[C@H](O)[C@H]6NC(C)=O)[C@@H](O)[C@H](O[C@H]6O[C@H](CO)[C@@H](O)[C@H](O)[C@@H]6O[C@@H]6O[C@H](CO)[C@@H](O[C@@H]7O[C@H](CO[C@]8(C(=O)O)C[C@H](O)[C@@H](NC(C)=O)[C@H]([C@H](O)[C@H](O)CO)O8)[C@H](O)[C@H](O)[C@H]7O)[C@H](O)[C@H]6NC(C)=O)[C@@H]5O)[C@H](O)[C@H]4NC(C)=O)[C@H](O)[C@H]3NC(C)=O)C2=O)NC(C)=O)CSSC[C@@H](C(=O)N[C@@H](CC(N)=O)C(=O)N[C@@H](CO)C(=O)N[C@@H](Cc2ccccc2)C(=O)N[C@@H](CCCNC(=N)N)C(=O)N[C@@H](Cc2ccc(O)cc2)C(=O)O)NC(=O)CNC(=O)[C@H](CC(C)C)NC(=O)CNC(=O)[C@H](CO)NC(=O)[C@H](CCC(N)=O)NC(=O)[C@H](C)NC(=O)CNC1=O (some centres unmarked) [Compound 2-15, [(SG-)Cys-Gly]3-hANP(1-28)]
Human GC-A
  EC50: 3.1 nM
[1]
  Maximum time of detection after administration: 1.5 h

## CC[C@H](C)[C@@H]1NC(=O)[C@H](CCCNC(=N)N)NC(=O)[C@H](CC(=O)O)NC(=O)[C@H](CCSC)NC(=O)[C@H](CCCNC(=N)N)NC(=O)CNC(=O)CNC(=O)[C@H](Cc2ccccc2)NC(=O)[C@@H](NC(=O)[C@H](CO)NC(=O)[C@H](CO)NC(=O)[C@H](CCCNC(=N)N)NC(=O)[C@H](CCCNC(=N)N)NC(=O)[C@H](CC(C)C)NC(=O)[C@H](CO)NC(=O)CO[C@@H]2O[C@H](CO)[C@@H](O[C@@H]3O[C@H](CO)[C@@H](O[C@@H]4O[C@H](CO[C@H]5O[C@H](CO)[C@@H](O)[C@H](O)[C@@H]5O[C@@H]5O[C@H](CO)[C@@H](O)[C@H](O)[C@H]5NC(C)=O)[C@@H](O)[C@H](O[C@H]5O[C@H](CO)[C@@H](O)[C@H](O)[C@@H]5O[C@@H]5O[C@H](CO)[C@@H](O)[C@H](O)[C@H]5NC(C)=O)[C@@H]4O)[C@H](O)[C@H]3NC(C)=O)[C@H](O)[C@H]2NC(C)=O)CSSC[C@@H](C(=O)N[C@@H](CC(N)=O)C(=O)N[C@@H](CO)C(=O)N[C@@H](Cc2ccccc2)C(=O)N[C@@H](CCCNC(=N)N)C(=O)N[C@@H](Cc2ccc(O)cc2)C(=O)O)NC(=O)CNC(=O)[C@H](CC(C)C)NC(=O)CNC(=O)[C@H](CO)NC(=O)[C@H](CCC(N)=O)NC(=O)[C@H](C)NC(=O)CNC1=O [Compound 2-11, AG(7)-hANP(1-28)]
[1]
  Maximum time of detection after administration: 2 h
